The data set is described as follows: yeast display, Sf9 membrane polyspecificity reagent, FACS + sequencing; frameworks hold sequencing errors. Summed up: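 Using colony PCR, genes from sorted yeast display clones were amplified, then sequenced on MiSeq at 2 × 250 and filtered by CDR length. The clones had been stained with 10% biotinylated, detergent-solubilized Sf9 membrane reagent for 1 hour at 4 °C and sorted by FACS into low and high (top ~1%) gates on anti-HA and streptavidin fluorescence. Polyreactivity labels come from the gate of origin.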
For “QVQLVESGGGLVQAGGSLRLSCAASGFTFAVYVMGWYRQAPGKERELVATISFSVGSTYYADSVKGRFTISRDNAKNTVYLQMNSLKPEDTAVYDCNADPPPEYYPDKDNYWGQGTQVTVSS”, the “polyreactivity (PSR sort gate)” value is on record as “low polyreactivity”. Consider “QVQLVESGGGLVQAGGSLRLSCAASGFTFAWYAMGWYRQAPGKERELVAAINWSGGRTYYADSVKGRFTISRDNAKNTVYLQMNSLKPEDTAVYYCAAPHLVKRSEFDYWGQGTQVTVSS”, for which the “polyreactivity (PSR sort gate)” value was “high polyreactivity”. With “QVQLVESGGGLVQAGGSLRLSCAASGFTFAYYAMGWYRQAPGKERELVAAITGSGGRTYYADSVKGRFTISRDNAKNTVYLQMNSLKPEDTAVYYCAALTGPYKAQVHGGHTPLDYWGQGTQVTVSS”, the “polyreactivity (PSR sort gate)” value was “low polyreactivity”.

Regarding “QVQLVESGGGLVQAGGSLRLSCAASGFTFCRNTMGWYRQAPGKEREFVAAIDWSGGSTTYADSVKGRFTISRDNAKNTVYLQMNSLKPEDTAVYYCAADERRRHYWWGQESDYWGQGTQVNVSS”, the “polyreactivity (PSR sort gate)” value is “low polyreactivity”. As for “QVQLVESGGGLVQAGGSLRLSCAASGFTFDAYTMGWYREAPGKERELVAAINWSGDTTYYADSVKGRFTISRDNAMNTVYLQMNSLKPEDTAVYYCAAVWLNYGVWFDYWGQGTQVTVSS”, the entry is “high polyreactivity”; as for “QVQLVESGGGLVQAGGSLRLSCAASGFTFDDYDMGWYRQAPGKERELVAAISWSGGSTYYADSVKGRFTFSRDNAKNTVYLQMNSLKPEDSAVYYCAAERSYGGFDYWGQGTQVTVSS”, “low polyreactivity”. Regarding “QVQLVESGGGLVQAGGSLRLSCAASGFTFDENAMGWYRQAPGINYSGASTYYADSVKGRFTISRDNAKNTVYFQMNSLKPEDTAVYYCAAEVVAQMNYWGQGTQVTVSS”, the “polyreactivity (PSR sort gate)” value is reported as “low polyreactivity”. As for “QVQLVESGGGLVQAGGSLRLSCAASGFTFDFYAMGWYRQAPGKERELVAAINWSGSSTYYADSVKGRFTISRDNAKNTVYLQMNSLKPEDTAVYYCAAQVYYTLFPDVYTMYYWGQGTQVTVSS”, the entry is “high polyreactivity”; as for “QVQLVESGGGLVQAGGSLRLSCAASGFTFDFYVMGWYRQAPGKERELVAAITSGGGTYYADSVKGRFTISRDNAKNTVYLQMNSLKPEDTAVYYCAVSVTTVSTYDYWGQGTQVTVSS”, “low polyreactivity”; as for “QVQLVESGGGLVQAGGSLRLSCAASGFTFDKNAMGWYRQAPGKERELVAAINIGSTYYADSVKGRFTISRDNAKNTVYLQMNSLKPEDSAVYYCAKEVPSGYWVNYYYWGQGTQVTVSS”, “low polyreactivity”. Consider “QVQLVESGGGLVQAGGSLRLSCAASGFTFDSYAMGWYRQAPGKERELVAAITSDGSTYYADSVKGRFTISRDNAKNSVYLQMNSLKPEDTAVYYCAADGISLYATAYDFWGQGTQVTVSS”, for which the “polyreactivity (PSR sort gate)” value was “low polyreactivity”.

Regarding “QVQLVESGGGLVQAGGSLRLSCAASGFTFDSYAMGWYRQAPGKERELVAAITSDGSTYYADSVKGRFTISRDNAKNTVYLQMNSLKPEDTAVYYCAADGRYFRAVFRLYDYWGQGTQVTVSS”, the “polyreactivity (PSR sort gate)” value is recorded as “low polyreactivity”.

Regarding “QVQLVESGGGLVQAGGSLRLSCAASGFTFDSYAMGWYRQAPGTERELVASISSSGSTNYADSVKGRFTISRDNAKNTVYLQMNSLKPEDTAVYYCAAESRYPFIYEYWGQGTQVTVSS”, the “polyreactivity (PSR sort gate)” value is reported as “low polyreactivity”. The entry for “QVQLVESGGGLVQAGGSLRLSCAASGFTFDYNAMGWYRQAPGKERELVASIDQSGGSTYYADSVKGRFTISRDNAKNTVYLQMNSLKPEDTAVYYCAAEGYYTSTYDLYDYYYWGQGTQVTVSS” is “low polyreactivity”; for “QVQLVESGGGLVQAGGSLRLSCAASGFTFDYYDMGWYRQAPGKERELVAGITYSGGRTRYADSVKGRFTISRDNAKNTVYLQMNSLKPEDTAVYYCAARPGYPYRMNYWGQGTQVTVSS” it is “low polyreactivity”. As for “QVQLVESGGGLVQAGGSLRLSCAASGFTFDYYTMGWYRQAPGKEREFVAAITWNGGSTYYADSVKGRFTISRYNAKNTVYLQMNSLKPEDSAVYYCAADTTYGINRREYWGQGTQVTVSS”, the entry is “low polyreactivity”.

The values are drawn from the nanobody polyreactivity screen of Harvey et al. (2022).
